The text below walks through data of the Human Domainome abundance scans (Beltran et al. 2025).

The chains are these.
B1: Zinc finger protein ZIC 2, residues 250 to 295; numbered along this chain, O95409 (parent)
chain: QCIKQELICKWIDPEQLSNPKKSCNKTFSTMHELVTHVSVEHVGGP

± gives the uncertainty stated by the source.

In the data set the parent is B1. Briefly: abundance fitness (aPCA) (normalised: wild type 0, dead -1); higher = more abundant; growth selection in yeast, the domain comes from the species named. The following applies: Homo sapiens.
As to QCIKQELICKWIDPEQLSNPKKSCNKTFSTMHELVTHVSVFHVGGP [E41F], the abundance fitness is -0.405 ± 0.13.

QCIKQELICKWIDPEQLSNPKKSCNKTFSTMHELVTHVSVMHVGGP [E41M]: the abundance fitness was -0.338 ± 0.1.

In the case of QCIKQELICKWIDPEQLSNPKKSCNKTFSTMHELVTHVSVKHVGGP [E41K], the abundance fitness was -0.269 ± 0.11.

Consider QCIKQELICKWIDPEQLSNPKKSCNKTFSTMHELVTHVSVDHVGGP [E41D], for which the abundance fitness is -0.093 ± 0.11.

Turning to QCIKQELICKWIDPEQLSNPKKSCNKTFSTMHELVTHVSVQHVGGP [E41Q], the abundance fitness came out at 0.084 ± 0.098.

As for QCIKQELICKWIDPEQLSNPKKSCNKTFSTMHELVTHVSVCHVGGP [E41C], the abundance fitness is 0.03 ± 0.1.

Consider QCIKQELICKWIDPEQLSNPKKSCNKTFSTMHELVTHVSVIHVGGP [E41I], for which the abundance fitness was -0.216 ± 0.12.

On to QCIKQELICKWIDPEQLSNPKKSCNKTFSTMHELVTHVSVLHVGGP [E41L], for which the abundance fitness was -0.487 ± 0.089.

Regarding QCIKQELICKWIDPEQLSNPKKSCNKTFSTMHELVTHVSVNHVGGP [E41N], the abundance fitness was -0.044 ± 0.11.

For the variant QCIKQELICKWIDPEQLSNPKKSCNKTFSTMHELVTHVSVSHVGGP [E41S], the abundance fitness came out at 0.032 ± 0.087.

On to QCIKQELICKWIDPEQLSNPKKSCNKTFSTMHELVTHVSVRHVGGP [E41R], for which the abundance fitness was -0.377 ± 0.088.

On to QCIKQELICKWIDPEQLSNPKKSCNKTFSTMHELVTHVSVPHVGGP [E41P], for which the abundance fitness is -1.04 ± 0.12.

In the case of QCIKQELICKWIDPEQLSNPKKSCNKTFSTMHELVTHVSVAHVGGP [E41A], the abundance fitness was -0.07 ± 0.089.

Regarding QCIKQELICKWIDPEQLSNPKKSCNKTFSTMHELVTHVSVTHVGGP [E41T], the abundance fitness was found to be 0.032 ± 0.094.

With QCIKQELICKWIDPEQLSNPKKSCNKTFSTMHELVTHVSVGHVGGP [E41G], the abundance fitness was -0.279 ± 0.087.

For the variant QCIKQELICKWIDPEQLSNPKKSCNKTFSTMHELVTHVMVEHVGGP [S39M], the abundance fitness is -0.274 ± 0.11.

For the variant QCIKQELICKWIDPEQLSNPKKSCNKTFSTMHELVTHVQVEHVGGP [S39Q], the abundance fitness is 0.296 ± 0.1.

As for QCIKQELICKWIDPEQLSNPKKSCNKTFSTMHELVTHVVVEHVGGP [S39V], the abundance fitness is -0.357 ± 0.091.

Take QCIKQELICKWIDPEQLSNPKKSCNKTFSTMHELVTHVCVEHVGGP [S39C]: the abundance fitness is -0.016 ± 0.11.

On to QCIKQELICKWIDPEQLSNPKKSCNKTFSTMHELVTHVRVEHVGGP [S39R], for which the abundance fitness is 0.056 ± 0.087.

Consider QCIKQELICKWIDPEQLSNPKKSCNKTFSTMHELVTHVIVEHVGGP [S39I], for which the abundance fitness was -0.681 ± 0.14.

As to QCIKQELICKWIDPEQLSNPKKSCNKTFSTMHELVTHVAVEHVGGP [S39A], the abundance fitness was found to be 0.129 ± 0.088.

For the variant QCIKQELICKWIDPEQLSNPKKSCNKTFSTMHELVTHVHVEHVGGP [S39H], the abundance fitness was -0.241 ± 0.13.

On to QCIKQELICKWIDPEQLSNPKKSCNKTFSTMHELVTHVGVEHVGGP [S39G], for which the abundance fitness was -0.019 ± 0.086.

On to QCIKQELICKWIDPEQLSNPKKSCNKTFSTMHELVTHVDVEHVGGP [S39D], for which the abundance fitness was 0.414 ± 0.1.

For the variant QCIKQELICKWIDPEQLSNPKKSCNKTFSTMHELVTHVFVEHVGGP [S39F], the abundance fitness was -0.663 ± 0.11.

QCIKQELICKWIDPEQLSNPKKSCNKTFSTMHELVTHVWVEHVGGP [S39W]: the abundance fitness is -0.292 ± 0.097.

Turning to QCIKQELICKWIDPEQLSNPKKSCNKTFSTMHELVTHVYVEHVGGP [S39Y], the abundance fitness was -0.873 ± 0.14.

As for QCIKQELICKWIDPEQLSNPKKSCNKTFSTMHELVTHVLVEHVGGP [S39L], the abundance fitness was -0.356 ± 0.091.

Turning to QCIKQELICKWIDPEQLSNPKKSCNKTFSTMHELVTHVEVEHVGGP [S39E], the abundance fitness was determined as 0.334 ± 0.092.

On to QCIKQELICKWIDPEQLSNPKKSCNKTFSTMHELVTHVTVEHVGGP [S39T], for which the abundance fitness was -0.065 ± 0.093.

With QCIKQELICKWIDPEQLSNPKKSCNKTFSTMHELVTHVNVEHVGGP [S39N], the abundance fitness is -0.007 ± 0.11.

In the case of QCIKQELICKWIDPEQLSNPKKSCNKTFSTMHELVTHVPVEHVGGP [S39P], the abundance fitness was -0.666 ± 0.12.

For the variant QCIKQELICKWIDPEQLSNPKKSCNKTFSTMHELVTHQSVEHVGGP [V38Q], the abundance fitness amounted to 0.43 ± 0.11.

Take QCIKQELICKWIDPEQLSNPKKSCNKTFSTMHELVTHYSVEHVGGP [V38Y]: the abundance fitness came to 0.066 ± 0.12.

As for QCIKQELICKWIDPEQLSNPKKSCNKTFSTMHELVTHSSVEHVGGP [V38S], the abundance fitness amounted to 0.202 ± 0.088.

As to QCIKQELICKWIDPEQLSNPKKSCNKTFSTMHELVTHPSVEHVGGP [V38P], the abundance fitness was -0.417 ± 0.12.

Consider QCIKQELICKWIDPEQLSNPKKSCNKTFSTMHELVTHTSVEHVGGP [V38T], for which the abundance fitness was 0.052 ± 0.1.

QCIKQELICKWIDPEQLSNPKKSCNKTFSTMHELVTHRSVEHVGGP [V38R]: the abundance fitness amounted to 0.607 ± 0.083.

Take QCIKQELICKWIDPEQLSNPKKSCNKTFSTMHELVTHWSVEHVGGP [V38W]: the abundance fitness turned out to be 0.82 ± 0.09.

As to QCIKQELICKWIDPEQLSNPKKSCNKTFSTMHELVTHVSSEHVGGP [V40S], the abundance fitness came out at 0.001 ± 0.088.

Take QCIKQELICKWIDPEQLSNPKKSCNKTFSTMHELVTHVSHEHVGGP [V40H]: the abundance fitness was -0.136 ± 0.13.

In the case of QCIKQELICKWIDPEQLSNPKKSCNKTFSTMHELVTHVSMEHVGGP [V40M], the abundance fitness came out at 0.082 ± 0.099.

With QCIKQELICKWIDPEQLSNPKKSCNKTFSTMHELVTHVSTEHVGGP [V40T], the abundance fitness was -0.073 ± 0.1.

Turning to QCIKQELICKWIDPEQLSNPKKSCNKTFSTMHELVTHVSNEHVGGP [V40N], the abundance fitness amounted to 0.075 ± 0.11.

For the variant QCIKQELICKWIDPEQLSNPKKSCNKTFSTMHELVTHVSFEHVGGP [V40F], the abundance fitness is -0.549 ± 0.11.

As for QCIKQELICKWIDPEQLSNPKKSCNKTFSTMHELVTHVSWEHVGGP [V40W], the abundance fitness is -0.581 ± 0.1.

For the variant QCIKQELICKWIDPEQLSNPKKSCNKTFSTMHELVTHVSGEHVGGP [V40G], the abundance fitness turned out to be 0.05 ± 0.084.

For the variant QCIKQELICKWIDPEQLSNPKKSCNKTFSTMHELVTHVSREHVGGP [V40R], the abundance fitness is -0.134 ± 0.086.

Regarding QCIKQELICKWIDPEQLSNPKKSCNKTFSTMHELVTHVSAEHVGGP [V40A], the abundance fitness is -0.03 ± 0.089.

For the variant QCIKQELICKWIDPEQLSNPKKSCNKTFSTMHELVTHVSKEHVGGP [V40K], the abundance fitness was -0.122 ± 0.1.

As to QCIKQELICKWIDPEQLSNPKKSCNKTFSTMHELVTHVSIEHVGGP [V40I], the abundance fitness was -0.01 ± 0.11.

Consider QCIKQELICKWIDPEQLSNPKKSCNKTFSTMHELVTHVSYEHVGGP [V40Y], for which the abundance fitness is -0.275 ± 0.12.

As for QCIKQELICKWIDPEQLSNPKKSCNKTFSTMHELVTHVSCEHVGGP [V40C], the abundance fitness is -0.457 ± 0.11.

Take QCIKQELICKWIDPEQLSNPKKSCNKTFSTMHELVTHVSEEHVGGP [V40E]: the abundance fitness is 0.062 ± 0.092.

As for QCIKQELICKWIDPEQLSNPKKSCNKTFSTMHELVTHVSLEHVGGP [V40L], the abundance fitness was -0.363 ± 0.096.
